# Measurements as given in article PMC5606850, “Acidic C-terminal domains autoregulate the RNA chaperone Hfq” (eLife, 2017).
# *: point of attachment. FITC = O=C1OC2(c3ccc(O)cc3Oc3cc(O)ccc32)c2ccc(NC(=S)*)cc21; Ahx = NCCCCCC(=O)O
# What was measured:
# [1] = protein stability of Hfq65-K3 mutants; type: physicochemical, E. coli
# [2] = SDS-PAGE oligomerization of purified Hfq variants; type: physicochemical, E. coli; conditions: 4–20% SDS-PAGE, ~2.8 µg protein, 2% SDS, boiled
# Experimental: (§1) Figure 2. CTD and RNA occupy the same rim binding site. […] The CTD linker is shown in purple, the acidic tip in red and the N-terminal FITC as a yellow star. Hfq core is shown in cyan, with basic rim patches in dark blue. […] (C) Reaction scheme for annealing an RNA molecular beacon to a target RNA (open bar) ([Hopkins et al., 2011]; [Panja et al., 2015]). (D) Progress curves for annealing 50 nM molecular beacon and 100 nM Target by 50 nM Hfq65 hexamer at 30°C, measured by stopped-flow fluorescence. See Figure 2—figure supplement 3 for further data. (E) Contribution of core residues to CTD binding. Interaction energy (Expected Energetic Contribution; EEC) in silico for a core residue in the Rosetta models (solid symbols and solid line; adjusted R^2 = 0.77) or the average annealing rates for Target and Target-A18 relative to Hfq65 (open symbols and dashed line; adjusted R^2 = 0.94) versus experimental CTD binding energy (∆∆G°) for each Hfq65 variant. The binding energy, ∆∆G° = –RTln(Kd^MUT/Kd), reflects the perturbation to CTD binding by a mutation in Hfq65. The interaction energy in silico or EEC is defined as the average energy of a tail–core interaction multiplied by the average number of tail–core interactions per model (Figure 1B, top and Equation 3). The relative annealing rate for Hfq65 variants, krel = kobs^MUT/kobs^WT, is <1 if the mutated residue is important for RNA annealing. Figure 2—figure supplement 1. SDS-PAGE of purified Hfq variants. WT Hfq assembles into hexamers and dodecamers that are stable to SDS-PAGE, which can be used to evaluate the oligomerization of Hfq variants. Purified Hfq protein (~2.8 µg) was separated on a 4–20% SDS-PAGE gel and stained with Coomassie blue (lanes 2–6). Samples were prepared in 2% SDS and boiled before loading. Lane 1, Protein standards (10 µL All Blue Precision Plus, NEB). […] Annealing of 100 nM Target RNA to 50 nM beacon RNA by Hfq65 and Hfq65 variants was measured by stopped flow fluorescence at 30°C in 1 × TNK buffer. […] The change in fluorescence emission intensity was normalized to the maximum fluorescence within an experiment. […]
# [3] = test system: RNA molecular beacon and Target RNA; assay: RNA annealing kinetics (molecular beacon and Target RNAs), stopped-flow fluorescence; type: biochemical; conditions: 50 nM molecular beacon, 100 nM Target, Hfq65 variants, TNK buffer, 30 °C
# Experimental: as §1, with “variants.” for “variants. WT Hfq assembles into hexamers and dodecamers that are stable to SDS-PAGE, which can be used to evaluate the oligomerization of Hfq variants. Purified Hfq protein (~2.8 µg) was separated on a 4–20% SDS-PAGE gel and stained with Coomassie blue (lanes 2–6). Samples were prepared in 2% SDS and boiled before loading. Lane 1, Protein standards (10 µL All Blue Precision Plus, NEB).”
# To determine how much core residues that bind the CTD contribute to Hfq’s RNA annealing activity, we compared the effect of rim mutations on the rate of base pairing between an RNA molecular beacon and the 16 nt Target RNA by stopped-flow fluorescence spectroscopy (Figure 2C) ([Hopkins et al., 2011]). […]
# [4] = biological target: Hfq65 (Hfq core, CTD deleted) (Escherichia coli, UniProt P0A6X3 1-65); assay: competition; displaces CTD-FITC peptide; strong; IC50 only in figure; Anisotropy: 10 mM Tris-HCl pH 7.5, 50 mM NaCl, 50 mM KCl, 30 C; CTD-FITC competition: 50 mM Tris-HCl pH 7.5, 30 C; pUC19 EMSA: 40 mM Tris-HCl pH 7.5, 0.14 mM EDTA, 35 mM NH4Cl, 3.7% glycerol, 25 C (competition legend 30 C); conditions: protein: recombinant, tags: untagged, chain copies: 6
# [5] = biological target: Hfq102 (wild-type Hfq) (Escherichia coli, UniProt P0A6X3 1-102); assay: competition; vs pUC19 EMSA; strongest, saturates at 1:1; Anisotropy: 10 mM Tris-HCl pH 7.5, 50 mM NaCl, 50 mM KCl, 30 C; CTD-FITC competition: 50 mM Tris-HCl pH 7.5, 30 C; pUC19 EMSA: 40 mM Tris-HCl pH 7.5, 0.14 mM EDTA, 35 mM NH4Cl, 3.7% glycerol, 25 C (competition legend 30 C); conditions: protein: recombinant, tags: untagged, chain copies: 6
# [6] = test system: Hfq102·pUC19 complex; assay: RNA or DNA competition of Hfq102·pUC19 complexes, EMSA; type: binding, E. coli
# Experimental: Figure 5. CTD and RNAs inhibit DNA binding to Hfq by obstructing the basic rim patch. (A, B) Agarose gel electrophoretic mobility shift assays of 0–3.3 μM hexamer Hfq102, Hfq102-R16A, Hfq65 or Hfq65-R16A binding to 6 nM linear pUC19 DNA ([…]) at 25°C, stained with SYBR Gold. Hfq65 forms large aggregates that fail to enter the gel (Figure 5—figure supplement 1). (C, D) Line densitometry of DNA migration in (A, B). Free pUC19 (no Hfq) is shown in light grey. Samples with increasing Hfq concentration are shown in darker shades of grey. (E, F) RNA competition. Complexes of 0.5 μM Hfq102 hexamer and 6 nM linear pUC19 (black) were challenged by 0–2 μM RNA or DNA competitor (darker shades of red). pUC19 control in the absence of Hfq is shown in light grey. […] Digestion of Hfq65 and Hfq65-R16A with Proteinase K liberates DNA from Hfq•DNA aggregates, allowing it to be detected (lanes 9 and 10). […] The small proportion of Hfq65·DNA complexes remaining in the supernatant were only detected in the gel after treatment with salt. […]
# Samples (10 µL) containing linear pUC19 (0.145 nmol bp), 0–3.333 µM Hfq hexamer, in 40 mM Tris-HCl pH 7.5, 0.14 mM EDTA, 35 mM NH4Cl, 3.7% (v/v) glycerol, 0.05% (w/v) bromophenol blue were incubated at 25°C for 30 min. […] The fluorescence intensity was measured on a line from the bottom edge of the well through the middle of the lane to visualize the migration of pUC19. […]
# [7] = biological target: T1, E. coli Hfq65 (Hfq core; truncated variant lacking the CTD) (E. coli, UniProt P0A6X3 1-65); assay: fluorescence polarisation; 45 nM FITC-labelled peptide titrated with Hfq65 or variant (0–100 µM Hfq monomer), 50 mM Tris·HCl pH 7.5 (low salt), 30 °C, duplicate, single-site isotherm; Kd in Hfq monomer; conditions: both partners purified
# T1 construct: Untagged; Forms a homohexameric ring; also called core Hfq; Hfq65 core
molecule,measurement,setting,value
Hfq65-K3Q,formation of stable protein,[1],neither Hfq65-K3S nor Hfq65-K3Q formed stable proteins
Hfq65-K3S,formation of stable protein,[1],neither Hfq65-K3S nor Hfq65-K3Q formed stable proteins
Hfq102-R16A: rim mutation R16A of full-length Hfq (printed R16A in b39),oligomeric state on SDS-PAGE,[2],only forms hexamer (blue dot) and monomer
Hfq65-Q35A,observed annealing rate of Hfq65 rim mutants,[3],relatively unaffected
ChiX sRNA (structured_RNA) RNA: GGGACACCGUCGCUUAAAGUGACGGCAUAAUAAUAAAAAAAUGAAAUUCCUCUUUGACGGGCCAAUAGCGAUAUUGGCCAUUUUUUU,binding result,[4]; label: 32P in annealing EMSA,binds
same,binding result,[5]; label: 32P in annealing EMSA,binds
"ChiX: Class II sRNA, transcribed in vitro (nucleic acid, unmodified RNA, Class II sRNA, transcribed in vitro) GGGACACCGUCGCUUAAAGUGACGGCAUAAUAAUAAAAAAAUGAAAUUCCUCUUUGACGGGCCAAUAGCGAUAUUGGCCAUUUUUUU",competition against pUC19 DNA for binding to Hfq102,[6],strongest competitors
DsrA sRNA (structured_RNA) RNA: GGGAACACAUCAGAUUUCCUGGUGUAACGAAUUUUUUAAGUGCUUCUUGCUUAAGCAAGUUUCAUCCCGACCCCCUCAGGGUCGGGAUUUUUUU,binding result,[4],binds
RyhB sRNA (structured_RNA) RNA: GGGCGAUCAGGAAGACCCUCGAGGAGAACCUGAAAGCACGACAUUGCUCACAUUGCUUCCAGUAUUACUUAGCCAGCCGGGUGCUGGCUUUUU,binding result,[4],binds
same,binding result,[5],binds
"RyhB: sRNA, transcribed in vitro (nucleic acid, unmodified RNA, sRNA, transcribed in vitro) GGGCGAUCAGGAAGACCCUCGAGGAGAACCUGAAAGCACGACAUUGCUCACAUUGCUUCCAGUAUUACUUAGCCAGCCGGGUGCUGGCUUUUU",competition against pUC19 DNA for binding to Hfq102,[6],strongest competitors
"{FITC-Ahx}-QLELE-OH (SMILES CC(C)C[C@H](NC(=O)[C@H](CCC(=O)O)NC(=O)[C@H](CC(C)C)NC(=O)[C@H](CCC(N)=O)NC(=O)CCCCCNC(=S)Nc1ccc2c(c1)C(=O)OC21c2ccc(O)cc2Oc2cc(O)ccc21)C(=O)N[C@@H](CCC(=O)O)C(=O)O, Hfq, Bacillus subtilis, C-terminal end of the CTD; also called BsCTD-FITC peptide) [BsCTD-FITC (B. subtilis Hfq CTD peptide)]",Kd,[7],8.7 µM
RprA sRNA (structured_RNA) RNA: GGGACGGUUAUAAAUCAACAUAUUGAUUUAUAAGCAUGGAAAUCCCCUGAGUGAAACAACGAAUUGCUGUGUGUAGUCUUUGCCCAUCUCCCACGAUGGGCUUUUUUUU,binding result,[4],binds
